# Reference: patent publication US20250236644A1 (published 2025)
# Read-outs that look alike come from different tables or passages of the source. Ends that are not written are not given here.
# T1: TAMRA-labeled effector peptide cs074B (5(6)-TAMRA label coupled on resin after synthesis)
# T1 peptide: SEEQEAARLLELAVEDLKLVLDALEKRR
# T2: TAMRA-labeled effector peptide cs201B (5(6)-TAMRA label coupled on resin after synthesis)
# T2 peptide: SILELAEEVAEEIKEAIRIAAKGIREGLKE
# T3: TAMRA-labeled effector peptide cs221B (5(6)-TAMRA label coupled on resin after synthesis)
# T3 peptide: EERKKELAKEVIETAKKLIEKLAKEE
# T4: TAMRA-labeled effector peptide js007B (5(6)-TAMRA label coupled on resin after synthesis)
# T4 peptide: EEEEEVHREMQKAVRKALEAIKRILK
# B1: hinge cs074 (designed binder)
# chain: MSGDEEVQEAVERAEELREEAEELIKKARKTGDPELLRKALEALKEAVRAVKEAIKRNPDNEEAVKTAVRLARELLKVAEELKERAEKTGDPRLLLLAAEAIAWAIEAVFLAAKASENTEGALEAARAAVKLAEVAKRIAKLLQRDAKKEGDPELLKLALRALELAVRAVELAIKENPDNEEAVETAKRLAEELRKVAELLEERAKETGDPELQELAKRAKEVADRARELAKKSNPNNGSGSHHWGSTHHHHHH
# B2: hinge cs201 (designed binder)
# chain: MSGDEEVQEAVERAEELREEAEELIKKARKTGDPELLRKALEALKEAVRAVREAIKRNPDNEEAIKTALRLARELRKVAKELIERARKTGDAELLKKALEAARVAVEAVRLAAEYNKENAEKMAELLVELAELAREVADVLIELAEKTGDPELLKKALEVLEEAVEAVRLAIEYDPDHEEAVETAKRLAEELRKVAELLEERAKETGDPELQELAKRAKEVADRARELAKKSNGSGSHHWGSTHHHHHH
# B3: hinge cs221 (designed binder)
# chain: MSGEMKEEIRRLAEELRERTKDEEVRELAREAARLAEESDDEEVKEVVKKALEAALKSKDEEVIRLLLLAAVLAAAAARSGSPEEKLEIAKKALELAMKSKDEEVIRLALLAAVLAARSDDEEVLKKVKEALEKAMESKDVEEIRERLREAVEVARAGSGSHHWGSTHHHHHH
# B4: TAMRA-labeled peptide cs221B (peptide)
# peptide: {5(6)‑TAMRA}-EERKKELAKEVIETAKKLIEKLAKEE
# B5: swapped target hinge csw13 (designed binder)
# chain: MSGNEEVKKLVEEAKKYLKEAEEYIKKAKKTGNEELLEKALKLLEKALELVKKAIELDPNNKEAIEQAVEIARALNEVAELLIEEAKKTGNEELLEKALEALEAANEALKLAIENNENDKELLAEIAVELAEVGVLLAEVLIEEAKKTGDPELLKLALEVLEAAVEALELALKLDPNNEEAVELAEEAAKLLEEVAKELKEEAKKTGDPELEKLAKEAEELAKRAKELAERQRGSGSHHWGSTHHHHHH
# B6: hinge js007 (designed binder)
# chain: MSGSEEVNERVKQLAEKAKEATDKEEVIEIVKELAELAKQSTDPNLVAEVVRALTEVAKTSTDTELIQEIVKVLLELARRLTDPQLLLEVLKSIAELLKELAEKTGNETAKLAALVAQIAAEVVEMALRAEKTHPGSEIVKLAVELVQKVAEIVLIAAQLMLDKPNSDEVRKVLKEVEKVAREALKALREAKRHPDSQKARDEIKEASQKAEEVKERIERAQEGSGSHHWGSTHHHHHH
# B7: swapped target hinge csw20 (designed binder)
# chain: MSGMEEVKELVEKAEELAKEAEELIKKAKKTGNPELLKEALRKLKEAVELAKEAVELDPEHEEAIELLARLAEKLLEVAKLLIELAKKTGNPELLKEALRALKEAREALRLAAEHAPEDAKLLARLAARLAELALLIAKILIELAKKTGNPELLLKALKVLTLAVEAVEAALEADPRLKEAVRVAKELAEVLKELAKLAKELAKKTGNEELKEAAKEAEEVAKRAEELAREAEGSGSHHWGSTHHHHHH
# Columns and labels:
# [1] = target: T1, TAMRA-labeled effector peptide cs074B; experiment: fluorescence polarization
# [2] = target: T2, TAMRA-labeled effector peptide cs201B; experiment: fluorescence polarization
# [3] = target: T3, TAMRA-labeled effector peptide cs221B; experiment: fluorescence polarization
# [4] = target: T3, TAMRA-labeled effector peptide cs221B; experiment: fluorescence polarization
# [5] = target: cs221-V111L-A114T DEER site pair 1; experiment: fluorescence polarization; MTSL-labeled, site pair 1
# [6] = target: T4, TAMRA-labeled effector peptide js007B; experiment: fluorescence polarization
# [7] = target: T1, TAMRA-labeled effector peptide cs074B; experiment: fluorescence polarization
binder,measurement,setting,value
B1,Kd,[1],1 nM
B2,Kd,[2],17 nM
same,Kd,[3],4370 nM
B3,Kd,[4],1.5 nM
B4,Kd,[5],0.4 nM
B5,Kd,[3],< 1 nM
B6,Kd,[6],6 nM
B7,Kd,[2],12 nM
same,Kd,[3],1500 nM
same,Kd,[7],< 1 nM
